For one test, the target named is FcγRIIIa 158F (human) (UniProt P08637). The test is described as follows: BLI. In general terms: BLI is a label-free optical method that tracks binding on a fibre tip over time.
The target in test [1] is T1, CD20 (human, UniProt P11836).
T1 chain: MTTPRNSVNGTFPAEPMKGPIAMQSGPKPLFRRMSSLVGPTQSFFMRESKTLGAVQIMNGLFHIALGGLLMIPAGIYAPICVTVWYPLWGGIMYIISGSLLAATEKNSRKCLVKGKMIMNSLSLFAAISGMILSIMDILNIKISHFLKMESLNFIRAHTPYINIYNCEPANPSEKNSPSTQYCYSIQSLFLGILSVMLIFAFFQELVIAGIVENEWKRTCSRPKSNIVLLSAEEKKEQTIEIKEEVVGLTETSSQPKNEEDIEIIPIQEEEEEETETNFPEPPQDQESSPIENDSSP
Kind of test: FACS, Wil2-s cells, 4C.

Test [2] deals with T1, CD20. The test is described as follows: FACS, Wil2-s cells, 4C. For orientation: A flow cytometer gives signals particle by particle.
The target of test [3] is T1, CD20. The test is described as follows: FACS, Raji cells, 4C.
In test [4] the target is T1, CD20. Kind of test: FACS, Raji cells, 4C.

Sequence of FcγRIIIa 158F (human) (P08637 17-208): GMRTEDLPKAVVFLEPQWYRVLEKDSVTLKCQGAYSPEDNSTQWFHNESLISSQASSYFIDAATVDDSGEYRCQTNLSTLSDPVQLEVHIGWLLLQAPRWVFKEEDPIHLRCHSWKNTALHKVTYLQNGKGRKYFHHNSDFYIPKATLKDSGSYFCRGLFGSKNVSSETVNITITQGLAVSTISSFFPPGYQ

As a reminder, the Kd is the free concentration of one partner at which half of the binding sites on the other are occupied at equilibrium, for simple one-to-one binding. A high value points to lower affinity. Molecule Obinutuzumab (Gazyva) came in with a Kd in the test with FcγRIIIa 158F (human) of 226 nM.

B1: Rituximab (antibody)
chain 1: QVQLQQPGAELVKPGASVKMSCKASGYTFTSYNMHWVKQTPGRGLEWIGAIYPGNGDTSYNQKFKGKATLTADKSSSTAYMQLSSLTSEDSAVYYCARSTYYGGDWYFNVWGAGTTVTVSA
chain 2: QIVLSQSPAILSASPGEKVTMTCRASSSVSYIHWFQQKPGSSPKPWIYATSNLASGVPVRFSGSGSGTSYSLTISRVEAEDAATYYCQQWTSNPPTFGGGTKLEIK
As usually defined, the IC50 is the concentration that gives 50% inhibition. A high value points to weaker potency in that assay. B1: the IC50 came out at 16.8 nM with CD20 [1] and 13.3 nM in the test with CD20 [4]. Besides, the Kd worked out at 16 nM with CD20 [2] and 12.7 nM with CD20 [3].

The record behind these values is US20230203169 (published 2023).
